# Source: US11872307B2, “Liquisoft capsules” (PATHEON SOFTGELS INC., priority 2015, dated 2024)
# Assay: Appearance / precipitation of matrix fill
# Type: physicochemical
# Settings: dextromethorphan hydrobromide 30 mg, menthol 5 mg
# Experimental: Formulas 14, 15, and 16 were the initial matrix prototypes for dextromethorphan hydrobromide (30 mg) and menthol (5 mg). Three different taste-masking agents were tested: mannitol, thaumatin (Talin®) and glycyrrhizic acid salts (MagnaSweet®).
# Thaumatin and glycyrrhizic acid salts were employed with the lower active pharmaceutical ingredient dose, individually and as a combination. […] Thus, the glycyrrhizic acid salts were not further assessed for chemical stability. Thus, Formula 19 was formulated using thaumatin and used for excipient compatibility studies.
substance,measurement,value
Thaumatin,appearance of matrix fill,hazy appearance
